# Measurements taken from patent US20110288036A1, “Methods for Treating or Preventing Vascular Graft Failure” (priority 2010, published 2011).
# Where no end group is shown, it is not given here.
# Biological target: MK2 (mitogen-activated protein kinase-activated protein kinase 2), P49137
# Test: cell-based or functional assay
# Sequence of MK2 (mitogen-activated protein kinase-activated protein kinase 2), P49137 (P49137 46-400): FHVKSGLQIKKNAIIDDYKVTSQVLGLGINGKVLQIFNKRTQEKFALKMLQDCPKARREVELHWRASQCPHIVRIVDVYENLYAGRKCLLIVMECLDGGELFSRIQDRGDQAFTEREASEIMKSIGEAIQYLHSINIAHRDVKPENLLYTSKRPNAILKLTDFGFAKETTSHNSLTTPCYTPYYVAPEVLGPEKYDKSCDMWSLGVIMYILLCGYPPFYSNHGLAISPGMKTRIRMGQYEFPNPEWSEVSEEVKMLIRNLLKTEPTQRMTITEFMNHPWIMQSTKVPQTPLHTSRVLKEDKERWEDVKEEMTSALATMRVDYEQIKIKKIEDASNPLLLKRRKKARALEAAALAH
binder,measurement,value
YARAAARQARAKALARQLGVAA (not fully specified (C-terminus)) [MMI-0100 (…; SEQ ID NO: 1)],"Percent Activity (radiometric kinase assay, 100 µM peptide) (percent activity)",< 5
